What was measured:
[1] = tested on: CC(=O)OCC1=C(C(=O)O)N2C(=O)[C@@H](NC(=O)Cc3cccs3)[C@H]2SC1; assay: Michaelis-Menten hydrolysis kinetics, purified enzyme; type: biochemical, Escherichia coli; conditions: active site (catalytic Ser64)
[2] = tested on: CO/N=C(\C(=O)N[C@@H]1C(=O)N2C(C(=O)O)=C(COC(C)=O)CS[C@H]12)c1csc(N)n1; assay: as above; type: biochemical, Escherichia coli; conditions: active site (catalytic Ser64)

Substance | Km [1] [µM] | kcat [1] [s⁻¹] | Km [2] [µM] | kcat [2] [s⁻¹]
AmpC β-lactamase (Escherichia coli K-12; E235K) | 24 | 84.6 | 77 | 6.9
AmpC β-lactamase (Escherichia coli K-12; T86I) | – | – | 295 | 9.2

Source: publication PMC2815101
